What was measured:
[1] = biological target: retinoblastoma protein (pRb), endogenous in ovine OFTu cells (ovine (endogenous in OFTu)); test: co-IP; OFTu cells infected with Flag-tagged recombinant ORFV (MOI 10), harvested 12 h p.i.; reciprocal IP of total protein extracts (anti-Flag or antibody against the cellular protein), high stringency buffer with 300 mM NaCl, overnight at 4°C, protein G agarose; Western blot
[2] = biological target: retinoblastoma protein (pRb), endogenous in ovine OFTu cells (ovine (endogenous in OFTu))
[3] = biological target: retinoblastoma protein (pRb), endogenous in human cells (human (endogenous in HEK 293T, HeLa)) (UniProt P06400); test: co-IP; HEK 293T cells transfected with pORFV119^Flag, pORFV119^LxGxE-Flag or pORFV113^Flag, harvested 12 h post transfection; reciprocal IP of total protein extracts (anti-Flag, anti-pRb or anti-TRAF2), high stringency buffer with 300 mM NaCl, overnight at 4°C, protein G agarose; Western blot
[4] = biological target: retinoblastoma protein (pRb), endogenous in human cells (human (endogenous in HEK 293T, HeLa)) (UniProt P06400); test: co-IP; HeLa cells transfected with pORFV119^Flag, harvested 12 h post transfection; reciprocal IP (anti-Flag or anti-pRb), high stringency buffer with 300 mM NaCl; Western blot
[5] = biological target: ORFV119^Flag expressed by revertant virus OV-IA82-RV119^Flag (orf virus (ORFV) strain OV-IA82); test: co-IP; OFTu cells infected with Flag-tagged recombinant ORFV (MOI 10), harvested 12 h p.i.; reciprocal IP of total protein extracts (anti-Flag or antibody against the cellular protein), high stringency buffer with 300 mM NaCl, overnight at 4°C, protein G agarose; Western blot
[6] = biological target: ORFV119^Flag (ORFV119-3xFlag fusion protein expressed from plasmid pORFV119^Flag) (orf virus (ORFV) strain OV-IA82); test: co-IP; HEK 293T cells transfected with pORFV119^Flag, pORFV119^LxGxE-Flag or pORFV113^Flag, harvested 12 h post transfection; reciprocal IP of total protein extracts (anti-Flag, anti-pRb or anti-TRAF2), high stringency buffer with 300 mM NaCl, overnight at 4°C, protein G agarose; Western blot
[7] = biological target: ORFV119^Flag (ORFV119-3xFlag fusion protein expressed from plasmid pORFV119^Flag) (orf virus (ORFV) strain OV-IA82); test: co-IP; HeLa cells transfected with pORFV119^Flag, harvested 12 h post transfection; reciprocal IP (anti-Flag or anti-pRb), high stringency buffer with 300 mM NaCl; Western blot

ORFV119^Flag expressed by revertant virus OV-IA82-RV119^Flag (natural protein)
percentage co-immunoprecipitated [1]: 18.5%

ORFV119^LxGxE-Flag expressed by revertant virus OV-IA82-RV119^LxGxE-Flag (natural protein)
fold increase of phosphorylated IKKα/β (Ser176/180) in OFTu cells infected with OV-IA82-RV119^LxGxE-Flag relative to OV-IA82, Western blot densitometry, 30 min and 1 h p.i. [2]: 27.4 fold | fold increase of phosphorylated IκBα (Ser32/36) in OFTu cells infected with OV-IA82-RV119^LxGxE-Flag relative to OV-IA82, Western blot densitometry, 30 min and 1 h p.i. [2]: 21.2 fold | fold increase of phosphorylated NF-κB-p65 (Ser536) in OFTu cells infected with OV-IA82-RV119^LxGxE-Flag relative to OV-IA82, Western blot densitometry, 30 min and 1 h p.i. [2]: 13.2 fold

ORFV119^Flag (ORFV119-3xFlag fusion protein expressed from plasmid pORFV119^Flag) (natural protein)
percentage co-immunoprecipitated [3]: 28.4% | percentage co-immunoprecipitated [4]: 38.7%

retinoblastoma protein (pRb), endogenous in ovine OFTu cells (natural protein)
percentage co-immunoprecipitated [5]: 8.7%

B1: retinoblastoma protein (pRb), endogenous in human cells (natural protein)
chain: MPPKTPRKTAATAAAAAAEPPAPPPPPPPEEDPEQDSGPEDLPLVRLEFEETEEPDFTALCQKLKIPDHVRERAWLTWEKVSSVDGVLGGYIQKKKELWGICIFIAAVDLDEMSFTFTELQKNIEISVHKFFNLLKEIDTSTKVDNAMSRLLKKYDVLFALFSKLERTCELIYLTQPSSSISTEINSALVLKVSWITFLLAKGEVLQMEDDLVISFQLMLCVLDYFIKLSPPMLLKEPYKTAVIPINGSPRTPRRGQNRSARIAKQLENDTRIIEVLCKEHECNIDEVKNVYFKNFIPFMNSLGLVTSNGLPEVENLSKRYEEIYLKNKDLDARLFLDHDKTLQTDSIDSFETQRTPRKSNLDEEVNVIPPHTPVRTVMNTIQQLMMILNSASDQPSENLISYFNNCTVNPKESILKRVKDIGYIFKEKFAKAVGQGCVEIGSQRYKLGVRLYYRVMESMLKSEEERLSIQNFSKLLNDNIFHMSLLACALEVVMATYSRSTSQNLDSGTDLSFPWILNVLNLKAFDFYKVIESFIKAEGNLTREMIKHLERCEHRIMESLAWLSDSPLFDLIKQSKDREGPTDHLESACPLNLPLQNNHTAADMYLSPVRSPKKKGSTTRVNSTANAETQATSAFQTQKPLKSTSLSLFYKKVYRLAYLRLNTLCERLLSEHPELEHIIWTLFQHTLQNEYELMRDRHLDQIMMCSMYGICKVKNIDLKFKIIVTAYKDLPHAVQETFKRVLIKEEEYDSIIVFYNSVFMQRLKTNILQYASTRPPTLSPIPHIPRSPYKFPSSPLRIPGGNIYISPLKSPYKISEGLPTPTKMTPRSRILVSIGESFGTSEKFQKINQMVCNSDRVLKRSAEGSNPPKPLKKLRFDIEGSDEADGSKHLPGESKFQQKLAEMTSTRTRMQKQKMNDSMDTSNKEEK
percentage co-immunoprecipitated [6]: 16.7% | percentage co-immunoprecipitated [7]: 21.5%
